Legend:
[1] = tested on: TrkB signaling (pTrkB, pAkt, pmTOR); assay: Immunoblotting of TrkB/Akt/mTOR phosphorylation in primary neurons transfected with MDGA2, ΔMAM or V930I; assay type: cell-based, mouse; details: for pAkt level normalized to total protein / pTrkB level normalized to total protein / pmTOR level normalized to total protein: KO neurons transfected, WT/Ctrl set to one
Experimental: Fig 3 MDGA2 interacts with TrkB and suppresses TrkB activity. (A) Primary hippocampal neurons derived from Mdga2^ +/− (Het) mice and their wild-type (WT) littermates at DIV 7 were treated with different doses of BDNF for 30 min. Equal amounts of protein lysates were subjected to immunoprecipitation (IP) with an anti-TrkB antibody, followed by immunoblotting with an anti-phosphotyrosine (pTyr) antibody or the anti-TrkB antibody. The pTyr levels were quantified by densitometry, normalized to total TrkB levels, and then compared to those of WT controls. n = 3 per group. (B) WT mouse brain lysates were subjected to IP with an anti-MDGA2 antibody and a control IgG, and immunoblotted (IB) for the components indicated. mBDNF, mature BDNF; ImBDNF, immature BDNF. (C) Hippocampal neurons from WT mice at DIV 7 were immunostained with antibodies against MDGA2 (red) and TrkB (green), and then counter-stained with DAPI (blue). Images were acquired by a confocal microscope. Scale bar: 10 μm. (D) Surface plasmon resonance (SPR) analysis of the binding between recombinant MDGA2 protein and recombinant TrkB protein. TrkB was immobilized on a Biacore CM5 chip and tested for its binding with MDGA2 at the concentrations indicated. (E) Computer simulation of the binding mode of TrkB and MDGA2. The predicted binding domain of TrkB (the d5 domain) is highlighted by a red square and labeled in brown. The predicted binding domain of MDGA2 (the MAM domain) is highlighted by a red square and labeled in yellow. (F) HEK293T cells were co-transfected with TrkB-Flag and GFP-tagged full-length MDGA2 (MDGA2-GFP) or an MDGA2 deletion fragment lacking the entire MAM domain (ΔMAM-GFP). Cell lysates were subjected to IP with control IgG and antibodies against Flag or GFP, and immunoblotted for the components indicated. […] The scheme of MDGA2-ΔMAM is also shown. (G) HeLa cells were co-transfected with TrkB that is tagged with the N-terminal Venus fragment (TrkB-VN) and full-length MDGA2 or MDGA2-ΔMAM that are tagged with the C-terminal Venus fragment (MDGA2-VC or ΔMAM-VC) for 24 h. After immunostaining with antibodies against MDGA2/MDGA2-ΔMAM (pink) and TrkB (red), cells were observed by confocal microscopy. Venus signal (green) indicates the interaction between MDGA2 and TrkB. Schematic diagrams depicting the BiFC assay are also shown. Scale bars: 10 μm. (H, I) Equal amounts of protein lysates from primary neurons derived from Het, KO, and their WT littermate mice (H), and from WT primary neurons transfected with GFP control, MDGA2-GFP or ΔMAM-GFP (I) were subjected to IP with IgG and an anti-BDNF antibody, and then immunoblotted for the components indicated. Immunoprecipitated TrkB levels were quantified by densitometry, normalized to input levels, and compared to respective controls (set to one arbitrary units). n = 3 per group. (J) Neurons derived from KO mice were transfected with GFP control (Ctrl), MDGA2-GFP, or MDGA2-ΔMAM-GFP, and neurons derived from their WT littermates were transfected with GFP control (Ctrl). Equal amounts of protein lysates were subjected to immunoblotting for the proteins indicated. Levels of phosphorylated proteins were quantified by densitometry, normalized to respective total protein levels and compared to controls (set to one arbitrary units). n = 6 per group. Data represent mean ± SEM. P-values were determined by two-tailed unpaired Student t-test in (A) and one-way ANOVA with Tukey’s multiple comparisons test in (H, I, J). *p < 0.05, **p < 0.01, ***p < 0.001, ns: not significant. The data underlying this figure can be found in S1 Data, specifically in the sheet labeled “Figure 3”.
Fig 7 The autism spectrum disorder (ASD)-associated MDGA2 V930I mutation impairs the MDGA2-TrkB interaction and MDGA2’s inhibitory effect on the tyrosine kinase B (TrkB) signaling. (A) Schematic depiction of the WT human MDGA2 and its V930I mutation constructs that are tagged with GFP. […]

BDNF-TrkB interaction = assay: BDNF-TrkB Co-IP (anti-BDNF or anti-TrkB) in primary neurons / brain of Het, KO, WT and in WT neurons transfected with MDGA2 or ΔMAM; assay type: cell-based, mouse; details: IP anti-BDNF, Fig 3I
Experimental: (§1) Fig 3 MDGA2 interacts with TrkB and suppresses TrkB activity. (A) Primary hippocampal neurons derived from Mdga2^ +/− (Het) mice and their wild-type (WT) littermates at DIV 7 were treated with different doses of BDNF for 30 min. Equal amounts of protein lysates were subjected to immunoprecipitation (IP) with an anti-TrkB antibody, followed by immunoblotting with an anti-phosphotyrosine (pTyr) antibody or the anti-TrkB antibody. The pTyr levels were quantified by densitometry, normalized to total TrkB levels, and then compared to those of WT controls. n = 3 per group. (B) WT mouse brain lysates were subjected to IP with an anti-MDGA2 antibody and a control IgG, and immunoblotted (IB) for the components indicated. mBDNF, mature BDNF; ImBDNF, immature BDNF. […] Immunoprecipitated TrkB levels were quantified by densitometry, normalized to input levels, and compared to respective controls (set to one arbitrary units). n = 3 per group. […] Levels of phosphorylated proteins were quantified by densitometry, normalized to respective total protein levels and compared to controls (set to one arbitrary units). n = 6 per group. […] P-values were determined by two-tailed unpaired Student t-test in (A) and one-way ANOVA with Tukey’s multiple comparisons test in (H, I, J). *p < 0.05, **p < 0.01, ***p < 0.001, ns: not significant. […]

TrkB (TrkB-VN) = assay: BiFC assay in HeLa cells (TrkB-VN with MDGA2-VC or ΔMAM-VC); assay type: cell-based, human; details: 24 h, Venus fluorescence
Experimental: as §1

B1: MDGA2-ΔMAM: truncated form of MDGA2 lacking its MAM domain (protein)
chain: PPTVRIVHSGLACNIEEERYSERVYTIREGETLELTCLVTGHPRPQIRWTKTAGSASDRFQDSSVFNETLRITNIQRHQGGRYYCKAENGLGSPAIKSIRVDVYYLDDPVVTVHQSIGEAKEQFYYERTVFLRCVANSNPPVRYSWRRGQEVLLQGSDKGVEIYEPFFTQGETKILKLKNLRPQDYANYSCIASVRNVCNIPDKMVSFRLSNKTASPSIKLLVDDPIVVNPGEAITLVCVTTGGEPAPSLTWVRSFGTLPEKTVLNGGTLTIPAITSDDAGTYSCIANNNVGNPAKKSTNIIVRALKKGRFWITPDPYHKDDNIQIGREVKISCQVEAVPSEELTFSWFKNGRPLRSSERMVITQTDPDVSPGTTNLDIIDLKFTDFGTYTCVASLKGGGISDISIDVNISSSTVPPNLTVPQEKSPLVTREGDTIELQCQVTGKPKPIILWSRADKEVAMPDGSMQMESYDGTLRIVNVSREMSGMYRCQTSQYNGFNVKPREALVQLIVQYPPAVEPAFLEIRQGQDRSVTMSCRVLRAYPIRVLTYEWRLGNKLLRTGQFDSQEYTEYAVKSLSNENYGVYNCSIINEAGAGRCSFLVTGKAYAPEFYYDTYNPVWQNRHRVYSYSLQWTQMNPDAVDRIVAYRLGIRQAGQQRWWEQEIKINGNIQKGELITYNLTELIKPEAYEVRLTPLTKFGEGDSTIRVIKYSAPVNPHLREQDLATKNSVD
modifications: left off: GFP, end not stated, kept
notes: truncated form of MDGA2 lacking its MAM domain
With B1 the “pAkt level normalized to total protein” value ([1]; replicate 1) was 2.92 arbitrary units, the “pTrkB level normalized to total protein” value ([1]; replicate 1) was 2.14 arbitrary units and the “pmTOR level normalized to total protein” value ([1]; replicate 1) was 3.01 arbitrary units. The “pAkt level normalized to total protein” value ([1]; replicate 2) was 2.51 arbitrary units, the “pTrkB level normalized to total protein” value ([1]; replicate 2) was 2.17 arbitrary units and the “pmTOR level normalized to total protein” value ([1]; replicate 2) was 2.5 arbitrary units. The “pAkt level normalized to total protein” value ([1]; replicate 3) was 2.41 arbitrary units, the “pTrkB level normalized to total protein” value ([1]; replicate 3) was 2.23 arbitrary units and the “pmTOR level normalized to total protein” value ([1]; replicate 3) was 2.06 arbitrary units. For the same molecule, the “pAkt level normalized to total protein” value ([1]; replicate 4) was 2.21 arbitrary units, the “pTrkB level normalized to total protein” value ([1]; replicate 4) was 2.41 arbitrary units and the “pmTOR level normalized to total protein” value ([1]; replicate 4) was 1.59 arbitrary units. For the same molecule, the “pAkt level normalized to total protein” value ([1]; replicate 5) was 1.76 arbitrary units, the “pTrkB level normalized to total protein” value ([1]; replicate 5) was 2.01 arbitrary units and the “pmTOR level normalized to total protein” value ([1]; replicate 5) was 1.49 arbitrary units. The “pAkt level normalized to total protein” value ([1]; replicate 6) was 1.68 arbitrary units, the “pTrkB level normalized to total protein” value ([1]; replicate 6) was 1.69 arbitrary units and the “pmTOR level normalized to total protein” value ([1]; replicate 6) was 1.31 arbitrary units. The “overactivation of TrkB signaling (pTrkB, pAkt, pmTOR) upon expression” value ([1]; Mdga2-/- neurons, Fig 3J, n = 6) was “not MDGA2-ΔMAM”, the “interaction between BDNF and TrkB upon overexpression” value (BDNF-TrkB interaction) was “not MDGA2-ΔMAM” and the “interaction with TrkB (BiFC)” value (TrkB (TrkB-VN)) was “not MDGA2-ΔMAM”.

Reference: PMC11960969, “Mdga2 deficiency leads to an aberrant activation of BDNF/TrkB signaling that underlies autism-relevant synaptic and behavioral changes in mice” (PLOS Biology, 2025)
